# Reference: US9951373B2, “Oplophorus-derived luciferases, novel coelenterazine substrates, and methods of use” (Promega Corporation, priority 2010, dated 2018)
# B1: L27V: 9B8 opt+K33N variant with L27V, T39T, K43R, Y68D (SEQ ID NO: 89) (protein)
# chain: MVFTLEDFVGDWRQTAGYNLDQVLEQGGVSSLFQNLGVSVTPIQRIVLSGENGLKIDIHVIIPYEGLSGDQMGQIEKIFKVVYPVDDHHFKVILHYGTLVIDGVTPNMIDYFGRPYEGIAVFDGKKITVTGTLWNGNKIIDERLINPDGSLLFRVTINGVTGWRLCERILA
# Tests used:
# [1] = Stability of secreted OgLuc variants in saved media; assay type: physicochemical; conditions: secreted variant in saved media
# Procedure: To determine if the secretion signal sequence of OgLuc facilitates its secretion, the OgLuc variants 9B8, V2 and L27V were cloned into pF4Ag containing an N-terminal OgLuc secretion signal sequence. The variants were also cloned into vectors without the secretion signal sequence. CHO or HeLa cells were then plates at 100,000 cells/well in 1 mL F12 media with 10% FBS and 1× sodium pyruvate (CHO cells) or DMEM with 10% FBS and 1× sodium pyruvate (HeLa cells) into 12-well plates and incubated overnight at 37° C., 5% CO2.
# After the overnight incubation, the cells were transfected with 1 μg plasmid DNA containing 9B8, V2, or L27V with or without the secretion signal sequence using the TRANSIT®-LT1 transfection reagent (Mirus Bio) and OPTI-MEMO media (Invitrogen). The cells were again incubated overnight at 37° C., 5% CO2.
# After the second overnight incubation, the media was removed and saved for analysis. […] To 10 μL of cell lysate or saved media from each sample, 50 μL assay buffer with 40 μM PBI-3939 was added, and luminescence measured as described above.
# To determine the stability of the secreted variants, 150 μL aliquots of the saved media from each sample was placed at 37° C. or 50° C. The aliquots were then removed at different time points (0, 1, 2, 3, 5, 6, and 7 […]), frozen on dry ice, and kept at −20° C. until assayed. To assay for stability, the media aliquots were thawed to room temperature, and 10 μL of each aliquot was mixed with assay buffer with PBI-3939 (pH 6.0) as described above. Luminescence was measured as above, and the half-life (t50) determined (Table 34).
# [2] = tested on: NIH3T3 cells; test: Luminescence in sandwich background, NIH3T3 cells; assay type: cell-based; conditions: non-sandwich versus sandwich
# Procedure: The PCR library in the Id-OgLuc-HT7 sandwich background was screened for additional variants with increased luminescence compared to 9B8 opt+K33N in sandwich background. Selected variants were then assayed in HEK293 and NIH3T3 cells. […] 1F7 (F) (SEQ ID NOs: 84 and 85) and 15H1 (F) (SEQ ID NOs: 86 and 87) had at least 1.3 fold-increase in luminescence in E. coli. 1F7 (F) was brighter than 9B8 opt+K33N in the sandwich background in HEK293 and NIH3T3 cells.
# The variants 9B8 opt+K33N+T39T+K43R+Y68D (“V2”; SEQ ID NOs: 92 and 93), 9B8 opt+K33N+L27V+K43R+Y68D (SEQ ID NOs: 339 and 340), 9B8 opt+K33N+L27V+T39T+K43R+S66N (SEQ ID NOs: 341 and 342), and 9B8 opt+K33N+L27V+T39T+K43R+Y68D (“L27V”; SEQ ID NOs: 88 and 89) were subcloned into the Id-OgLuc-HT7 sandwich background as described above and assayed in HEK293 and NIH3T3 cells as described above. The luminescence generated by the sandwiched variants were compared to the luminescence generated by the […] sandwich (SEQ ID NOs: 59 and 60) (Table 38). The L27V sandwich (SEQ ID NOs: 90 and 91) and V2 sandwich (SEQ ID NOs: 94 and 95) had at least 1.3× fold-increase in luminescence in HEK293 and NIH3T3 cells.
# The sandwich and non-sandwich versions of the variants V2, 9B8 opt+K33N+L27V+K43R+Y68D, 9B8 opt+K33N+L27V+T39T+K43R+S66N, and L27V were assayed in HEK293 and NIH3T3 cells as described in Example 37. The luminescence generated by the non-sandwiched variants was compared to the luminescence generated by the sandwiched variants (Table 39).
# [3] = tested on: HEK293 cells; test: Luminescence of OgLuc variants expressed in HEK293 cells; assay type: cell-based, human
# Procedure: The PCR library in the pF4Ag-based non-fusion background was screened for additional variants with increased luminescence compared to 9B8 opt+K33N+170G (SEQ ID NOs: 68 and 69). Selected variants were then assayed in HEK293 and NIH3T3 cells. For each cell type, 15,000 cells were plated and grown overnight at 37° C. The next day, the cells were transfected as described in Example 25 with 10 ng pGL4.13 (Promega Corp.) as a transfection control and 100 ng of the OgLuc test DNA. The media was removed, and the cells were lysed with 100 μL of lysis buffer as described in Example 25 except the lysis buffer contained 100 mM MES pH 6.0 instead of HEPES, and luminescence measured using a GLOMAX® Luminometer.
# Based on the above data, further combination variants were designed and generated (see Table 10) in the context of the pF4Ag-based non-fusion vector background without the 170G. The variants were analyzed in E. coli, HEK293 and NIH3T3 cells as described above and compared to 9B8 opt+K33N. The variants were also examined for luminescence with native coelenterazine.
# The brightness of the variants expressed in HEK293 and NIH3T3 cells was measured as described previously. The luminescence of the variants was normalized to the luminescence generated by 9B8 opt (Table 27).
# [4] = Km of L27V reversion variants, native coelenterazine; assay type: biochemical
# Procedure: Relative activities <1 indicate the reversion is detrimental compared to the residue at that site in the L27V variant. Relative activities >1 indicate the reversion is favorable for activity compared to the residue at that site in the L27V variant. Some additional data on these mutants indicated the following: 166K, 54F, 54A and L27V were tested for thermal stability. The T1/2 60° C. for 166K, 54F, and 54A were 87, 74, and 33%, respectively, indicating these substitutions cause a reduction in thermal stability. […] This indicates higher substrate affinity for L27V, particularly for the position 54 substitutions.
molecule,measurement,setting,value
B1,½ life 37 C.,[1],17 days
same,½ life 50 C.,[1],11 h
same,"Fold-decrease in luminescence in the presence of sandwich background, NIH 3T3 cells",[2],18
same,"luminescence normalized to 9B8 opt, HEK293",[3]; PBI-3939,1.6
same,"Fold over 9B8 opt + K33N, HEK293","[3]; luminescence, PBI-3939",0.8
same,"Fold over Native Coelenterazine, HEK293",[3]; relative specificity for PBI-3939 compared to native coelenterazine,97
same,Km,[4],16 µM
